Source: US20150017154A1 (NEXVET AUSTRALIA, published 2015)

B1: variant caninised anti-NGF antibody (caN2) with light chain SEQ ID NO:10 (VL2 and canine kappa constant domain) and heavy chain SEQ ID NO:11 (HCA variant-VH2 … (antibody)
heavy: EVQLVESGGDLVNPGGTLTLSCVVSGFSLTNNNVNWVRQALGRGLEWVGGVWAGGATDYNSALKSRLTITRDTSKSTVFLQMHSLRSEDTATYYCARDGGYSSSTLYAMDAWGQGTLVTVSSASTTAPSVFPLAPSCGSTSGSTVALACLVSGYFPEPVTVSWNSGSLTSGVHTFPSVLQSSGLHSLSSMVTVPSSRWPSETFTCNVVHPASNTKVDKPVFNECRCTDTPPCPVPEPLGGPSVLIFPPKPKDILRITRTPEVTCVVLDLGREDPEVQISWFVDGKEVHTAKTQSREQQFNGTYRVVSVLPIEHQDWLTGKEFKCRVNHIDLPSPIERTISKARGRAHKPSVYVLPPSPKELSSSDTVSITCLIKDFYPPDIDVEWQSNGQQEPERKHRMTPPQLDEDGSYFLYSKLSVDKSRWQQGDPFTCAVMHETLQNHYTDLSLSHSPGK
light: DIVMTQSPASLSLSQEEKVTITCRASEDIYNALAWYQQKPGQAPKLLIYNTDTLHTGVPSRFSGSGSGTEFSLTISSLEPEDVAVYYCQHYFHYPRTFGAGTKVELKRNDAQPAVYLFQPSPDQLHTGSASVVCLLNSFYPKDINVKWKVDGVIQDTGIQESVTEQDKDSTYSLSSTLTMSSTEYLSHELYSCEITHKSLPSTLIKSFQRSECQRVD
notes: also called anti-canine NGF monoclonal antibody (canine HCA type heavy chain)
B2: caninised anti-NGF antibody comprising the caN-HCC heavy chain and a caN-kLC light chain (antibody)
heavy: EVQLVESGGDLVNPGGTLTLSCVVSGFSLTNNNVNWVRQALGRGLEWVGGVWAGGATDYNSALKSRLTITRDTSKSTVFLKMHSLQSEDTATYYCARDGGYSSSTLYAMDAWGQGTLVTVSSASTTAPSVFPLAPSCGSQSGSTVALACLVSGYIPEPVTVSWNSVSLTSGVHTFPSVLQSSGLYSLSSMVTVPSSRWPSETFTCNVAHPATNTKVDKPVAKECECKCNCNNCPCPGCGLLGGPSVFIFPPKPKDILVTARTPTVTCVVVDLDPENPEVQISWFVDSKQVQTANTQPREEQSNGTYRVVSVLPIGHQDWLSGKQFKCKVNNKALPSPIEEIISKTPGQAHQPNVYVLPPSRDEMSKNTVTLTCLVKDFFPPEIDVEWQSNGQQEPESKYRMTPPQLDEDGSYFLYSKLSVDKSRWQRGDTFICAVMHEALHNHYTQISLSHSPGK
light: DIQMTQSPASLSLSQEEKVTITCRASEDIYNALAWYQQKPGQAPKLLIYNTDTLHTGVPSRFSGSGSGTEYSLTINSLESEDVAVYFCQHYFHYPRTFGAGTKVELKRNDAQPAVYLFQPSPDQLHTGSASVVCLLNSFYPKDINVKWKVDGVIQDTGIQESVTEQDKDSTYSLSSTLTMSSTEYLSHELYSCEITHKSLPSTLIKSFQRSECQRVD
notes: Tested as CHO cell transfectant supernatant; also called C-HCC; caN-HCC+caN-kLC1
B3: caninised anti-NGF antibody comprising the caN-HCD heavy chain and caN-kLC light chain (antibody)
heavy: EVQLVESGGDLVNPGGTLTLSCVVSGFSLTNNNVNWVRQALGRGLEWVGGVWAGGATDYNSALKSRLTITRDTSKSTVFLKMHSLQSEDTATYYCARDGGYSSSTLYAMDAWGQGTLVTVSSASTTAPSVFPLAPSCGSTSGSTVALACLVSGYFPEPVTVSWNSGSLTSGVHTFPSVLQSSGLYSLSSTVTVPSSRWPSETFTCNVVHPASNTKVDKPVPKESTCKCISPCPVPESLGGPSVFIFPPKPKDILRITRTPEITCVVLDLGREDPEVQISWFVDGKEVHTAKTQPREQQFNSTYRVVSVLPIEHQDWLTGKEFKCRVNHIGLPSPIERTISKARGQAHQPSVYVLPPSPKELSSSDTVTLTCLIKDFYPPEIDVEWQSNGQPEPESKYHTTAPQLDEDGSYFLYSKLSVDKSRWQQGDTFTCAVMHEALQNHYTDLSLSHSPGK
light: DIQMTQSPASLSLSQEEKVTITCRASEDIYNALAWYQQKPGQAPKLLIYNTDTLHTGVPSRFSGSGSGTEYSLTINSLESEDVAVYFCQHYFHYPRTFGAGTKVELKRNDAQPAVYLFQPSPDQLHTGSASVVCLLNSFYPKDINVKWKVDGVIQDTGIQESVTEQDKDSTYSLSSTLTMSSTEYLSHELYSCEITHKSLPSTLIKSFQRSECQRVD
notes: also called D-HCD; caninised HCD type antibody
B4: caninised anti-NGF antibody comprising the caN-HCB heavy chain and the caN-kLC light chain (antibody)
heavy: EVQLVESGGDLVNPGGTLTLSCVVSGFSLTNNNVNWVRQALGRGLEWVGGVWAGGATDYNSALKSRLTITRDTSKSTVFLKMHSLQSEDTATYYCARDGGYSSSTLYAMDAWGQGTLVTVSSASTTAPSVFPLAPSCGSTSGSTVALACLVSGYFPEPVTVSWNSGSLTSGVHTFPSVLQSSGLYSLSSMVTVPSSRWPSETFTCNVAHPASKTKVDKPVPKRENGRVPRPPDCPKCPAPEMLGGPSVFIFPPKPKDTLLIARTPEVTCVVVDLDPEDPEVQISWFVDGKQMQTAKTQPREEQFNGTYRVVSVLPIGHQDWLKGKQFTCKVNNKALPSPIERTISKARGQAHQPSVYVLPPSREELSKNTVSLTCLIKDFYPPDIDVEWQSNGQQEPESKYRTTPPQLDEDGSYFLYSKLSVDKSRWQRGDTFICAVMHEALHNHYTQESLSHSPGK
light: DIQMTQSPASLSLSQEEKVTITCRASEDIYNALAWYQQKPGQAPKLLIYNTDTLHTGVPSRFSGSGSGTEYSLTINSLESEDVAVYFCQHYFHYPRTFGAGTKVELKRNDAQPAVYLFQPSPDQLHTGSASVVCLLNSFYPKDINVKWKVDGVIQDTGIQESVTEQDKDSTYSLSSTLTMSSTEYLSHELYSCEITHKSLPSTLIKSFQRSECQRVD
notes: Tested as CHO cell transfectant supernatant; also called caN-HCB+caN-kLC1
B5: aglycosylated variant anti-canine-NGF monoclonal antibody HCB* (SEQ ID NO:5 and SEQ ID NO:16) (antibody)
heavy: EVQLVESGGDLVNPGGTLTLSCVVSGFSLTNNNVNWVRQALGRGLEWVGGVWAGGATDYNSALKSRLTITRDTSKSTVFLKMHSLQSEDTATYYCARDGGYSSSTLYAMDAWGQGTLVTVSSASTTAPSVFPLAPSCGSTSGSTVALACLVSGYFPEPVTVSWNSGSLTSGVHTFPSVLQSSGLYSLSSMVTVPSSRWPSETFTCNVAHPASKTKVDKPVPKRENGRVPRPPDCPKCPAPEMLGGPSVFIFPPKPKDTLLIARTPEVTCVVVDLDPEDPEVQISWFVDGKQMQTAKTQPREEQFAGTYRVVSVLPIGHQDWLKGKQFTCKVNNKALPSPIERTISKARGQAHQPSVYVLPPSREELSKNTVSLTCLIKDFYPPDIDVEWQSNGQQEPESKYRTTPPQLDEDGSYFLYSKLSVDKSRWQRGDTFICAVMHEALHNHYTQESLSHSPGK
light: DIQMTQSPASLSLSQEEKVTITCRASEDIYNALAWYQQKPGQAPKLLIYNTDTLHTGVPSRFSGSGSGTEYSLTINSLESEDVAVYFCQHYFHYPRTFGAGTKVELKRNDAQPAVYLFQPSPDQLHTGSASVVCLLNSFYPKDINVKWKVDGVIQDTGIQESVTEQDKDSTYSLSSTLTMSSTEYLSHELYSCEITHKSLPSTLIKSFQRSECQRVD
notes: Tested as CHO cell transfectant supernatant
B6: aglycosylated variant anti-canine-NGF monoclonal antibody HCC* (SEQ ID NO:5 and SEQ ID NO:17) (antibody)
heavy: EVQLVESGGDLVNPGGTLTLSCVVSGFSLTNNNVNWVRQALGRGLEWVGGVWAGGATDYNSALKSRLTITRDTSKSTVFLKMHSLQSEDTATYYCARDGGYSSSTLYAMDAWGQGTLVTVSSASTTAPSVFPLAPSCGSQSGSTVALACLVSGYIPEPVTVSWNSVSLTSGVHTFPSVLQSSGLYSLSSMVTVPSSRWPSETFTCNVAHPATNTKVDKPVAKECECKCNCNNCPCPGCGLLGGPSVFIFPPKPKDILVTARTPTVTCVVVDLDPENPEVQISWFVDSKQVQTANTQPREEQSAGTYRVVSVLPIGHQDWLSGKQFKCKVNNKALPSPIEEIISKTPGQAHQPNVYVLPPSRDEMSKNTVTLTCLVKDFFPPEIDVEWQSNGQQEPESKYRMTPPQLDEDGSYFLYSKLSVDKSRWQRGDTFICAVMHEALHNHYTQISLSHSPGK
light: DIQMTQSPASLSLSQEEKVTITCRASEDIYNALAWYQQKPGQAPKLLIYNTDTLHTGVPSRFSGSGSGTEYSLTINSLESEDVAVYFCQHYFHYPRTFGAGTKVELKRNDAQPAVYLFQPSPDQLHTGSASVVCLLNSFYPKDINVKWKVDGVIQDTGIQESVTEQDKDSTYSLSSTLTMSSTEYLSHELYSCEITHKSLPSTLIKSFQRSECQRVD
notes: as for B5

Columns and labels:
mouse NGF [1] = biological target: T1, mouse NGF (mouse, UniProt P01139 122-241, limits assumed); test: binding ELISA to mouse NGF, CHO supernatant dilutions
T1 construct: Coated on ELISA plates; also called murine NGF
T1 sequence (P01139 122-241 limits assumed): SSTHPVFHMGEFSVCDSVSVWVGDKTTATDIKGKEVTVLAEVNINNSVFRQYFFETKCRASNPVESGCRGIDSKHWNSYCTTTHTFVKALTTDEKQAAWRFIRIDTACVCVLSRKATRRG

[2] = biological target: T2, complement C1q (from human serum) (human, UniProt P02745 23-245; P02746 28-253; P02747 29-245); test: C1q ELISA: antibody captured on NGF-coated plate, human serum, anti-C1q-HRP
T2 construct: Native C1q in human serum diluted 1/100
T2 sequence (P02745 23-245 limits assumed, chain 1 of 3): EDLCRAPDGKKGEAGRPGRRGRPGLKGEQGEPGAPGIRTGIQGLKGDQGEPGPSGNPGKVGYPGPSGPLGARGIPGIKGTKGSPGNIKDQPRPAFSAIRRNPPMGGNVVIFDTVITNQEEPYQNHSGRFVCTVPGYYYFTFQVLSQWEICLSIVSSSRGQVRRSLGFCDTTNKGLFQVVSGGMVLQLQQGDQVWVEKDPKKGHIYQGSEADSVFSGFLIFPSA
T2 sequence (P02746 28-253 limits assumed, chain 2 of 3): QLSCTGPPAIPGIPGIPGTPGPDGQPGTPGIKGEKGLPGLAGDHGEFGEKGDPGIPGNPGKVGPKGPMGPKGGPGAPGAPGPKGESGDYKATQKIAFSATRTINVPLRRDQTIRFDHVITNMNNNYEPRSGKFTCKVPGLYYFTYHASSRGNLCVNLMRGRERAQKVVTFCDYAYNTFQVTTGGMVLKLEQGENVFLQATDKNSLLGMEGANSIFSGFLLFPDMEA
T2 sequence (P02747 29-245 limits assumed, chain 3 of 3): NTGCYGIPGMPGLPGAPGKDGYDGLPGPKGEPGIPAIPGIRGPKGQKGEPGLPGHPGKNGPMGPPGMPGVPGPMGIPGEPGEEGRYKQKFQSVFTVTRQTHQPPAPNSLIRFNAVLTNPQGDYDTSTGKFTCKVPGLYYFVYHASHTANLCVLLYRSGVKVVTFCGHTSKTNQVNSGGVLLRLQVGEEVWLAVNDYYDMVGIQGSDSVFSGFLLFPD

[3] = biological target: NGF (species not stated, TF-1 cell proliferation assay); test: cell-based or functional assay
[4] = biological target: T2, complement C1q (from human serum); test: C1q ELISA: antibody captured on mouse NGF-coated plate, human serum, anti-C1q-HRP
Experimental: CHO cell transfectant supernatants from Example 2 were incubated with plates coated with […] NGF to capture the antibodies. The plates were washed and then incubated with human serum and bound complement C1q was measured by binding of anti-human C1q polyclonal antibody HRP and developed as above.
Plates were coated with 100 μl/well of 5 μg/ml mouse NGF and blocked with 5% BSA/PBS. Coated wells were incubated for 1 hour at room temperature with cell culture supernatants, containing recombinant caninised anti-NGF IgG, diluted in PBS/1% BSA (100 μl/well). The plates were washed and incubated for 1 hour at room temperature with 100 μl/well of human serum diluted 1/100 in veronal buffered saline containing 0.5 mM MgCl₂, 2 mM CaCl₂, 0.05% Tween-20, 0.1% gelatin and 0.5% BSA. After washing, plates were incubated with 100 μl of a 1/800 dilution of sheep anti-C1q-HRP (Serotec) in PBS/1% BSA. After washing, plates were developed by the addition of 100 μl TMB substrate (Thermo Scientific). Development was stopped by the addition of 100 μl of 2N H₂SO₄ and absorbance read at 450 nm.

mouse NGF [5] = biological target: T1, mouse NGF; test: binding ELISA to mouse NGF, CHO supernatants undiluted and 1/100
Experimental: A comparison of the binding of N-glycosylated and aglycosylated variants of anti-canine-NGF monoclonal antibodies to NGF with HCB and HCC heavy chain isotypes was carried out. Expression vectors encoding the light and heavy chain pairs described by SEQ ID NO:5 and SEQ ID NO:7 (HCB), SEQ ID NO:5 and SEQ ID NO:16 (HCB*), SEQ ID NO:5 and SEQ ID NO:8 (HCC), or SEQ ID NO:5 and SEQ ID NO:17 (HCC*) were co-transfected into CHO cells and the supernatants compared by binding ELISA to mouse NGF.

Binder	binding result (mouse NGF [1])	binding result [2]	IC50 in the TF-1 NGF neutralisation assay [3] [pM]	binding result [4]	binding result (mouse NGF [5])
B1	binds	no binding (tested: 4, 2 and 1 ug/ml)	13		
B2				binds	binds
B3				no binding	
B4	binds			binds	
B5		no binding			binds
B6		binds			binds
